Test results reported in PMC13457854 (Cell Discovery, 2026).

B1: BTN2A1 (natural protein, human, UniProt Q7KYR7 29-527, looked up)
chain: QFIVVGPTDPILATVGENTTLRCHLSPEKNAEDMEVRWFRSQFSPAVFVYKGGRERTEEQMEEYRGRTTFVSKDISRGSVALVIHNITAQENGTYRCYFQEGRSYDEAILHLVVAGLGSKPLISMRGHEDGGIRLECISRGWYPKPLTVWRDPYGGVAPALKEVSMPDADGLFMVTTAVIIRDKSVRNMSCSINNTLLGQKKESVIFIPESFMPSVSPCAVALPIIVVILMIPIAVCIYWINKLQKEKKILSGEKEFERETREIALKELEKERVQKEEELQVKEKLQEELRWRRTFLHAVDVVLDPDTAHPDLFLSEDRRSVRRCPFRHLGESVPDNPERFDSQPCVLGRESFASGKHYWEVEVENVIEWTVGVCRDSVERKGEVLLIPQNGFWTLEMHKGQYRAVSSPDRILPLKESLCRVGVFLDYEAGDVSFYNMRDRSHIYTCPRSAFSVPVRPFFRLGCEDSPIFICPALTGANGVTVPEEGLTLHRVGTHQSL
notes: BTN2A1, human, codon-optimised synthetic cDNA; construct details are in the Supplementary Information; also called BTN2A1 homodimer; BTN2A1 dimer; source: ExpiHEK293F, transfected; purified within the 3A2/3A3 complex (anti-Flag, Strep-Tactin XT, SEC)
B2: BTN3A2 (natural protein)
chain: not shown
notes: BTN3A2, human, codon-optimised synthetic cDNA; Construct details are in the Supplementary Information; source: ExpiHEK293F, transfected; purified within the 3A2 complex (anti-Flag, Strep-Tactin XT, SEC)

Legend:
[1] = target: T1, BTN3A1/BTN3A2 heterodimer (human, UniProt O00481 30-513; P78410 30-334); assay: AUC; sedimentation velocity, 40,000 rpm, 20 °C, 25 mM HEPES pH 7.4, 150 mM NaCl, 0.02% GDN, absorbance at 280 nm; no HMBPP (3A2 complex also with 40 μM HMBPP: less of the high-mass species); conditions: both partners purified
T1 construct: BTN3A1, human; synthetic signal peptide fused to the N-terminus; BTN3A2, human; copies: 1 + 1

BTN3A1 = target: T2, BTN3A1 (human, UniProt O00481 30-513); assay: as above; conditions: both partners purified
T2 construct: BTN3A1, human, codon-optimised synthetic cDNA; Construct details are in the Supplementary Information; source: ExpiHEK293F, transfected; purified within the 3A2/3A3 complex (anti-Flag, Strep-Tactin XT, SEC)
T2 sequence (O00481 30-513): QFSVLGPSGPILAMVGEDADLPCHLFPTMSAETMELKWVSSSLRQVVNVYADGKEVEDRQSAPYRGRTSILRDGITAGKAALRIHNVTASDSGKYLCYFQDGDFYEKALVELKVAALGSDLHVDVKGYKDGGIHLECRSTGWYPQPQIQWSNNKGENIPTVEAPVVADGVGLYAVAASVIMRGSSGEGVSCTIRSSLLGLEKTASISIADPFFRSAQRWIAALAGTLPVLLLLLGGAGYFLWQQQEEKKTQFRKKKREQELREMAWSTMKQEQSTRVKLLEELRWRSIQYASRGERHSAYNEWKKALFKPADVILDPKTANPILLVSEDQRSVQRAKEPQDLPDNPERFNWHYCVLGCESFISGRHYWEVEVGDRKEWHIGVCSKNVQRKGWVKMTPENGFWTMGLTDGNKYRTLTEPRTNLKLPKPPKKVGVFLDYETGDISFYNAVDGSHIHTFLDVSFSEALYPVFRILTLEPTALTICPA

Binder	binding result [1]	binding result (BTN3A1)
B1	binds	–
B2	–	binds
